Results reported in the DeepSol protein solubility set.

Experiment: soluble on expression in E. coli; label from the status in PepcDB or PDB records

| Sequence | soluble on expression in E. coli |
| --- | --- |
| MSLALNPAVAPIKSIEFIPVNYQASNWSQNTVVVKVTDENGVYGLGEADGSPDAILAYANIETEHKWLTNITEKAIGRLPIEINAIWDAMYDATQWQGMRGLGMFALSGIDMALYDLAGKQLGVPAYQLLGGTNKDKVHPYLTLYPAIPVDASLDVAIKGYAPLLEKAKAHNIRAVKVCVPIKADWSTKEVAYYLRELRGILGHDTDMMVDYLYRFTDWYEVARLLNSIEDLELYFAEATLQHDDLSGHAKLVENTRSRICGAEMSTTRFEAEEWITKGKVHLLQSDYNRCGGLTELRRITEMATANNVQVMPHNWKTGITSAAAIHYQFAVGNAPYFEYVHPEFCDGELRKYLVTPEAELVDGGFAKPTAPGLGIDLNQEFLASLEGHHHHHH | soluble |
| MSLAMQDFRPGVYRHYKGDHYLALGLARADETDEVVVVYTRLYARAGLPMSTRLLRIWNETVDTGAGPQPRFAYVGHVTPEQGEGHHHHHH | soluble |
| MSLAQGIIENHLSKRSALLEQEKTSRHDYAFKQSMSPVAKTAAKVLADIRKKELKSIWSPTTTSNEKRDLKDVTFPGMSFTLSRDRMQKTALWKIVSAMPKGCLLHAHMEAMIDIDWMIEQAIELPGYYISSPVPLCPRTGSAGKWSEPFQFSYRPRLGSGANARNGSEPEISIWQAGYTPGRLVPVAAAAKMYPGGVEAFKAWAVSRMTINEEEALEHHHGIDDVWDKFRSCFLAIGGLFFTEPIFRRCIPRLLQQLHDDGIKYVELRLAPNPFYREGSNEAEPDFLYFLQCFQEEVDAYMSSPTGRGFWGAKIIWTAIRSFPDDLIKESMIHCLNSKKAYPSVITGFDFVGQEDAGRPLVDLLPLCKWFQQQCADEQLQIPFFLHAGECLGDGNDTDSNLVDAILLNSRRIGHAFSLYKHPLLIDLVKDKNILIEMCPISHEVLRLTSNILMHPMPALQARGVAVSLNNDDPAVLGHGKNGLSHDFYQVTAAFENTGLAGLATMAEDSIRWAAFEDETDSEWLQGIDGKGNGLKASRLAEWRTAFDEWCAWVVQEFGAESQIEGHHHHHH | soluble |
| MSLAQHPTGIHHLAFMAGDIKKHIAFFSDVMGCPLVALFDMHGVPGGLHAFLRMNDHSYFSIVQLPDVDKIPVQLGVTHAGNGARPSAPGTLQHLAFRADTEDALLALRDRIRSHGINVLGPIDHGMCRSIYFAGPDQMTLEVACSSETIDEGHHHHHH | soluble |
| MSLAQTNPNSKGDQQKMINIAHRGASGHAPENTMAAFQKGFDMKVDYIEFDVHMTKDGELVLMHDLTVDRTTNGHGYVSDLTLDEIKQFDAGSWFHEDFVGEKVPTFEETLDVFRGKVGLLIELKSPERYPGMEEKVAEALKERKMDRSSNHKVIIQSFNHESMKKSKELLPHIPHGVLAGPSWANVTDEQLEEFSTYADYFNPNMTIVTPELVSRIHAVGMKIFPYTSRTQEQANRLFELKVDGIITDFPEHVYFHPVKNQEGHHHHHH | not soluble |
| MSLAREPRNIGASVRARLLDRARAERSDFQILLTRYALERLLYRLSASPHRDRFILKGAMLFVTWIADPFRPTRDLDLLGHGDRDTEAIAETFRAICAQPVVDDGVTFDVAALMATPIREELEYGGVRVRTTATIAGARIPIQVDIGFGDAITPAAVEIDYPTLLDAPTPHLRAYPVETVVAEKFAALVTLGVANSRLKDFYDLWVISRTFELRRAALAEAIQRTFERRGTVLPSVVPVGLTDEFAETWAAQWRAFLERDRMAAAPDAFAVTVADLRLFLMPLVVGLKEERIWPPSGPWSPGAAIDEAEGHHHHHH | soluble |
| MSLARVFNACLFFYKIGGKMAMGEFDLIKRYFQQQILVDDSVQLSIGDDCALVSVPENYQLAITTDTMVENTHFLPTISPEDLAYKAVATNLSDLAAMGAQPKWVSLALTLPNVDENWISTFSQSLLHTLKQYNVTLIGGDTTKGNLSITITAQGFVEKNKGICRHKAQIGDLIYVSSTLGDSAAGLTQILLGKSAVDSDDVFLQQRHLRPTPRIELGQALIGIAHVAIDLSDGLISDLGHILERSQCSAEVELTALPLSSSILNKYDRTQAEQFALSGGEDYELCFTIPPEYKDELELRLKKLNVPCTCIGKINEKCGDFSPRFLRDGKPVNITFSSGFDHFKESKEGHHHHHH | soluble |
| MSLASFPHRNLTWNDINFVHTTDTHGWYSGHINQPLYHANWGDFISFTTHMRRIAHSRNQDLLLIDSGDRHDGNGLSDITSPNGLKSTPIFIKQDYDLLTIGNHELYLWENSKQEYETVVNHFQDKYVCSNVDIRLDNGLFVPLGLKYKYFTTPIRGIRVMAFGFLFDFKRFNSGTRVTPMAETIHEPWFQEALKHEVDLIIIVGHTPISHNWGEFYQVHQYLRQFFPDTIIQYFGGHSHIRDFTVFDSLSTGLQSGRYCETVGWTSVNLDKADLNLPVRQRFSRSYIDFNTDSFKYHTNLDKEFDTAKGKLVSKLIRETRKELKLDTLIGYVKTNYYVDYVPIDHPKSIFNLLALKILKTLPKSKHEERITIINTGSIRYDLYKGPYTIDSKFIVSPFENIWVNITVPKSVATKVAAKLNDADYISASRLKPPHQYDLQVQDLSTSPHQAHFEMQEKLPKGYVTHDDFGADGDDTLHRAVVNFPVPNVIQSVEINDEVDSPVNLVFYSFITPNIIWALKELNFSTEQVPTPYSDIYLGTLLNEFVANNEGHHHHHH | soluble |
| MSLASLRVLALACLPLFAVLHADAKTLLGKVKRATGMGVGEGPSVAKKPKYTATVPGFTPPSGDQRMNEFMAVDTSGEFMRHLYIEEGRTVCASATSRNRRPTSESPHSDDVVVVEGMLRGRPETRVHAMFDGFQGRHSAMWLAQNVMNYLNDLRDVNEEEITRQFERMDGDLRAANLPGGSSALIIFVRYEKKPTEARVVGRQIVPEGAKEFTSVAEALGGPLMPVVAMNFRRDPRAAKGIYTIHVASLGNSRCVLKSGRTAIHLSTPHTASSHKERHRVQAAGGVFTTVNGELLLGGVVPMTRAFGSFDFKKGGQGKLQQDLVSAVPDVTTFFAYPGDDIVAGTAGAFAHFRSHAAIAAAIALYPVSPETVLDAAEGHHHHHH | soluble |
| MSLASVWKRLQRVGKHASKFQFVASYQELMVECTKKWQPDKLVVVWTRRSRRKSSKAHSWQPGIKNPYRGVVVWPVPENIEITVTLFKDPHAEEFEDKEWTFVIENESPSGRRKALATSSINMKQYASPMPTQTDVKLKFKPLSKKVVSATLQFSLSCIFLREGKATDEDMQSLASLMSMKQADIGNLDDFEEDNEDDDENRVNQEEKAAKITEGHHHHHH | not soluble |
| MSLAVEKITMPKLGESVTEGTISSWLVKPGDTVEKYDAIAEVLTDKVTAEIPSSFSGTIKEILAEEDETLEVGEVICTIETADAGSSEPVAEVEETETKAPEKQETKQVKLADAPASGRFSPAVLRIAGENNIDLSTVEGTGKGGRITRKDLLQVIENGPVAKREEMKSAPQEKAAMPTPPVRSAAGDKEIPINGVRKAIAKHMSVSKQEIPHAWMMVEVDATGLVRYRNAVKDSFKKEEGYSLTYFAFFIKAVAQALKEFPQLNSTWAGDKIIEHANINISIAIAAGDLLYVPVIKNADEKSIKGIAREISELAGKARNGKLSQADMEGGTFTVNSTGSFGSVQSMGIINHPQAAILQVESIVKRPVIIDDMIAVRDMVNLCLSIDHRILDGLLAGKFLQAIKANVEKISKENTALYEGHHHHHH | soluble |
| MSLAVIKQDDLIQSVADALQFISYYHPVDFIQAMHEAYLREESPAARDSMAQILINSRMCATGHRPICQDTGIVTVFVRVGMDVRWDGATMSVDDMINEGVRRAYNLPENVLRASILADPAGARKNTKDNTPAVIHYSIVPGDKVEVDVAAKGGGSENKSKMAMLNPSDSIVDWVLKTVPTMGAGWCPPGMLGIGIGGTAEKAAVMAKEVLMDPIDIHELKARGPQNRIEELRLELFEKVNQLGIGAQGLGGLTTVLDVKIMDYPTHAASLPVCMIPNCAATRHAHFVLDGSGPAELEAPSLDAYPEIVWEAGPSARRVDLDKITPEEVQSWKPGETLLLNGKMLTGRDAAHKRMVDMLNKGETLPVDLKGRFIYYVGPVDPVGDEVVGPAGPTTATRMDKFTRQILEQTGLLGMIGKSERGPIAIEAIKDNKAVYLMAVGGAAYLVAQAIKKSKVLAFAELGMEAIYEFEVKDMPVTVAVDTNGESVHITGPAVWQKKIAESLAVEVKEGGSHHHHHH | soluble |
| MSLAVKPIPEGQHSITPYLAINDAAKAIEFYKQAFGAKEMFRLDAPGGRVGHAELRIGDSSLMLGDPCDMEGGLTASQKLSGAGVGLHLYVEDCDKVYAQALAAGGIQLHPLTDQFYGDRSGTLKDPFGNIWFVSTHKEDLTPDEIRARAAKMFGEGHHHHHH | soluble |
| MSLAVVKGARVQVPFGQQIKVGIVVDLPSTTDIPQSKLKPIHAVLDHQAIFDPEIWQLLHWAASYYHAAIGEVLASALPVKLRNGDAAEYVENDYFRVTELGQQRLVSPENKRSKKQYDLLSRLAEIAGFFEKPAGVSPSVWKALLEKGYLAKVVPTCQRKSWQQSLANRPLVNSQSRLVLNQQQTLVVSRLNACQNFETFLLNGITGSGKTEVYLQVIEQILKQDKQVLVLVPEIGLTPQMVNRFKTRFNVEIDVLHSNINETMRLKVWLKAKNGESAIVIGTRSALFTQFQRLGLIIIDEEHDHSFKQQEGWRYHARDVAIFRAKCLNIPIILGSATPSLESVYNVKNGKFTQLLLSTRAGNAEIAQQQLIDLKTQRITAGLSDRLLMLMQTHLQKGNQVMLFLNRRGFAPVLLCHECGWICECDACEKPYTYHQKQRVLRCHHCASQRVIPRQCGYCGSTNLITTGIGTEQLEQLLSEYFPTYQISRIDRDSTGRKGALEHHLNAIQTGKSQILIGTQMLAKGHHFPNVTLVALVNVDSALFSTDFRAEERLAQLYLQVAGRAGRAEKTGEVVLQTHYPDHPLLKCLLKDGYNAFAEEALKMRQVMALPPFTAQVLFRATGKQSDKVEHLLQNLTAYFQHKSVELGIEGIQISPPFSAIVAKKAGYYRWLLLIQHQSRSAIQQLLNVFDQEKSALNLPANIRLSLDVDPYDMSEGHHHHHH | soluble |
| MSLAVVRTINGDVSPDTLGVVNAHDHLIRVGAGEVYIDPDHLLDDVDKAAQEATYFVEASKSWAAGGTIIDMCPASSGRGVLKTLQVVEKVPGLQVVQATGFHQQKVYLEWRQSWVNQYTVTQIADLLIADIVEGIDRFDYMGPIVERTNVKAGVIKWATAYGKITEWEKKSGQAVAIASKETGCPINTHVTAGTCGPEQARFLVDQGVDPAKIAIGHMQRNWDPWVHEQICKLGCYVELDGTNRIKYVPDNTRVNLVKTLGEKGYGKQILLGTDSGKASYQKVYGSVSGIDYDPAVFCPRLVEDEGVDRDYVNDLLINNAATFFGFEPLAEGHHHHHH | not soluble |
| MSLDAHNFFKAGPYAPLAARMRPQSLDEVVGQRHLLDSGKPLQRLIAGSGDASVILYGPPGTGKTTIASLISAGTGHEFVGLSALNSGVKEIREVIDQARRNLIHGKRTVLFIDEVHRFSKTQQDALLAAVENRTVLLVAATTENPSFSVVAPLLSRSLILQLKPLTHDDIKTVLLHALQDKRGLDNRITISDEALEQLVLLSGGDARRSLTYLEAASESLADGEELTPEIIRHNVDKAIVRYDRDGDQHYDVVSAFIKSMRGSDVDAALHYLARMIDAGEDPRFIARRLVIHASEDVGMADPQALSVAVAASQAVALIGMPEARINLAQATIHLATAPKSNAVITAIDAALADVKQGKTGPVPAHLRDGHYAGAKQLGNAVGYKYPHDDPRGIVEQQYIPNGLEDVVYYRPSEHGAEQRIESYLGKLRRIVRGQREGHHHHHH | soluble |
